These results are taken from publication doi:10.1101/2024.03.26.586665 (bioRxiv, 2024).

One may read the stoichiometry N as the number of molecules, sites or subunits per partner or assembly.

For data set [1], the target named is human CaMKIIα W403L hub (human) (UniProt Q9UQM7). Put plainly: mass photometry.
Data set [2] deals with the molecule itself. The data set can be described thus: SAXS.
Data set [3] deals with the molecule itself. The data set can be described thus: mass photometry.

“human CaMKIIα W403L hub (from UniProt Q9UQM7 345-475) (domain or fragment)” displayed a stoichiometry N in data set [1] of 12.

B1: human CaMKIIα WT hub (calcium/calmodulin-dependent protein kinase II subtype alpha, hub domain) (domain or fragment, UniProt Q9UQM7 345-475, looked up)
chain: VRKQEIIKVTEQLIEAISNGDFESYTKMCDPGMTAFEPEALGNLVEGLDFHRFYFENLWSRNSKPVHTTILNPHIHLMGDESACIAYIRITQYLDAGGIPRTAQSEETRVWHRRDGKWQIVHFHRSGAPSV
As to B1, the “stoichiometry N” value in data set [2] was determined as 12; in data set [3], 24.
